From patent publication US20050182242A1, “Global analysis of protein activities using proteome chips” (priority 2001, published 2005)

Assays:
Details in all cases: liposome binding signal on yeast proteome chip, Cy3-streptavidin detection
PI(3)P liposomes = test: Yeast proteome chip probed with PI(3)P liposomes
From the text: To identify PI-binding proteins in yeast, liposomes were used as probes because the liposome provides the most relevant physiological condition to assay the interactors. Six types of liposomes were used. Each contains phosphatidylcholine (“PC”) with 1% (w/w) N-(biotinoyl)-1,2-dihexadecanoyl-sn-glycero-3-phosphoethanolamine, triethylammonium salt (biotin DHPE). The biotinylated lipid serves as a label that can be detected by Cy3-streptavidin (21). In addition to PC, the five other liposomes contain either 5% (w/w) PI(3)P, PI(4)P, PI(3,4)P2, PI(4,5)P2, or PI(3,4,5)P3 (FIG. 3A).
The protein-liposome interaction was assayed as follows. Appropriate amounts of each lipid in chloroform were mixed and dried under nitrogen. The lipid mixture was resuspended in TBS buffer by vortexing. The liposomes were created by sonication. Blocked proteome chips were washed three to five times in PBS buffer, and the extra liquid on the glass surface was removed by tapping the slides vertically on a KIMWIPE™. 200 μl of liposome solution was added to the proteome chip and immediately covered by a hydrophobic plastic cover slip (GRACE BIO-LAB™, USA). After trapped air bubbles were removed, the chip was incubated in a humidity chamber at RT for one hour. To remove the cover slip, the chip was immersed into large volume of PBS buffer (50 ml), so that the slip would float away. The chip was then moved to a second PBS bath (>50 ml) and washed 3×5 min with shaking at RT. After removing extra liquid on the surface of the chip, about 100 μl of Cy3 or Cy5 conjugated streptavidin (PIERCE™, USA; 1:2000 to 1:4000 dilution) was added to the surface and covered by a hydrophobic plastic cover slip (GRACE BIO-LABS™, USA). The chip was incubated for greater than 30 min in the dark at RT. The chip was then washed as described above. To completely remove the liquid on the chip, the chip was spun to dryness at 1500-2000 rpm for 5-10 min at RT.
• 1. S. Fields, Y. Kohara, D. J. Lockhart, Proc. Natl. Acad. Sci. 96, 8825 (1999); A. Goffeau et al., Science 274, 563 (1996). • 2 P. Ross-Macdonald et al., Nature 402, 413 (1999); J. L., DeRisi, V. R. Iyer, P. O. Brown, Science 278, 680 (1997); E. A. Winzeler et al., Science 285, 901 (1999). P. Uetz et al., Nature 403, 623 (2000); T. Ito et al., Proc. Natl. Acad. Sci. USA. 97, 1143 (2000) • 3 H. Zhu, M. Snyder, Curr. Opin. Chem. Biol. 5, 40 (2001). • 4 M. R. Martzen et al., Science 286, 1153 (1999). • 5 H. Zhu et al., Nat. Genet. 26, 283 (2000). • 6 G. MacBeath, S. L. Schreiber, Science 289, 1760 (2000). • 7 A. Caveman, J. Cell Sci. 113, 3543 (2000). • 8 P. Arenkov et al., Anal. Biochem 278, 123 (2000). • 9 D. A. Mitchell, T. K. Marshall, R. J. Deschenes, Yeast 9, 715 (1993). The expression vector pEGH was created by inserting an RGS-HisX6 epitope tag between the GST gene and the polycloning site of pEG(KG). The yeast ORFs were cloned using the strategy described previously (5), except every step was done in a 96-well format. Plasmid DNAs confirmed by DNA sequencing were reintroduced into both yeast (Y258) and E. coli (DH5a). […] 0.1 mM calcium was present in buffers in all subsequent steps. The chip was washed three times with PBS at RT. Cy3-conjugated streptavidin (Jackson IR, USA) (1:5000 dilution) was added to the chip and incubated for 30 min at RT. After extensive washing, the chip was spun dry and scanned using a microarray scanner; the data was subsequently acquired with the GENEPIX™ array densitometry software (Axon, USA). • 12 S. S. Hook, A. R. Means, Annu. Rev. Pharmacol. Toxicol.41, 471 (2001). • 13 M. S. Cyert, R. Kunisawa, D. Kaim, J. Thorner, Proc. Natl. Acad. Sci. USA 88, 7376 (1991). • 14 D. A. Stirling, K. A. Welch, M. J. Stark, EMBO J. 13, 4329 (1994). • 15 F. Bohl, Kruse, EMBO J. 19, 5514 (2000); E. Bertrand et al., Mol. Cell 2, 437 (1998). • 16 D. C. Winter, E. Y. Choe, R. Li, Proc. Nat. Acad Sci. USA 96, 7288 (1999). • 17 C.

PI(4,5)P2 liposomes = test: Yeast proteome chip probed with PI(4,5)P2 liposomes
PI(3,4)P2 liposomes = test: Yeast proteome chip probed with PI(3,4)P2 liposomes
PI(4)P liposomes = test: Yeast proteome chip probed with PI(4)P liposomes
[1] = test system: phosphatidylcholine (PC) liposomes; test: Yeast proteome chip probed with PC liposomes
In short: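 Sonicated liposomes in TBS, of phosphatidylcholine with 1% (w/w) biotin-DHPE plus 5% (w/w) of the named phosphoinositide (PC-only liposomes lacking it), were incubated on blocked chips of GST-RGS-His6-tagged yeast ORF proteins for 1 h at RT. Bound liposomes were detected with Cy3- or Cy5-streptavidin after PBS washes.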

PI(3,4,5)P3 liposomes = test: Yeast proteome chip probed with PI(3,4,5)P3 liposomes

Row | Molecule | PI(3)P (PI(3)P liposomes) | PI(4, 5)P2 (PI(4,5)P2 liposomes) | PI(3, 4)P2 (PI(3,4)P2 liposomes) | PI(4)P (PI(4)P liposomes) | PC [1] | PI(3, 4, 5)P3 (PI(3,4,5)P3 liposomes)
1 | PAU5: yeast GST-HisX6 fusion protein on proteome chip (protein, UniProt P43575 1-122, looked up, GST-His6 fusion tag, yeast GST-HisX6 fusion protein on proteome chip) Seripauperin-5: MVKLTSIAAGVAAIAAGASAAATTTLSQSDERVNLVELGVYVSDIRAHLAEYYSFQAAHPTETYPVEIAEAVFNYGDFTTMLTGIPADQVTRVITGVPWYSSRLKPAISSALSADGIYTIAN | −3.00 | −1.31 | −5.02 | 31.35 | 22.30 | –
2 | GAD1: yeast GST-HisX6 fusion protein on proteome chip (protein, UniProt Q04792 1-585, looked up, GST-His6 tag, yeast GST-HisX6 fusion protein on proteome chip) Glutamate decarboxylase: MLHRHGSKQKNFENIAGKVVHDLAGLQLLSNDVQKSAVQSGHQGSNNMRDTSSQGMANKYSVPKKGLPADLSYQLIHNELTLDGNPHLNLASFVNTFTTDQARKLIDENLTKNLADNDEYPQLIELTQRCISMLAQLWHANPDEEPIGCATTGSSEAIMLGGLAMKKRWEHRMKNAGKDASKPNIIMSSACQVALEKFTRYFEVECRLVPVSHRSHHMLDPESLWDYVDENTIGCFVILGTTYTGHLENVEKVADVLSQIEAKHPDWSNTDIPIHADGASGGFIIPFGFEKEHMKAYGMERWGFNHPRVVSMNTSGHKFGLTTPGLGWVLWRDESLLADELRFKLKYLGGVEETFGLNFSRPGFQVVHQYFNFVSLGHSGYRTQFQNSLFVARAFSFELLNSSKLPGCFEIVSSIHESIENDSAPKSVKDYWEHPQAYKPGVPLVAFKLSKKFHEEYPEVPQAILSSLLRGRGWIIPNYPLPKATDGSDEKEVLRVVFRSEMKLDLAQLLIVDIESILTKLIHSYEKVCHHIELASEQTPERKSSFIYEMLLALASPQDDIPTPDEIEKKNKLKETTTRNYRGTC | 51.25 | 11.54 | – | −1.96 | 24.36 | –
3 | ARO4: yeast GST-HisX6 fusion protein on proteome chip (protein, UniProt P32449 2-370, looked up, GST-His6 fusion tag, yeast GST-HisX6 fusion protein on proteome chip) Phospho-2-dehydro-3-deoxyhepto …: SESPMFAANGMPKVNQGAEEDVRILGYDPLASPALLQVQIPATPTSLETAKRGRREAIDIITGKDDRVLVIVGPCSIHDLEAAQEYALRLKKLSDELKGDLSIIMRAYLEKPRTTVGWKGLINDPDVNNTFNINKGLQSARQLFVNLTNIGLPIGSEMLDTISPQYLADLVSFGAIGARTTESQLHRELASGLSFPVGFKNGTDGTLNVAVDACQAAAHSHHFMGVTKHGVAAITTTKGNEHCFVILRGGKKGTNYDAKSVAEAKAQLPAGSNGLMIDYSHGNSNKDFRNQPKVNDVVCEQIANGENAITGVMIESNINEGNQGIPAEGKAGLKYGVSITDACIGWETTEDVLRKLAAAVRQRREVNKK | 87.50 | 20.47 | 34.53 | 42.24 | 28.17 | 29.25
4 | HIS7: yeast GST-HisX6 fusion protein on proteome chip (protein, UniProt P33734 1-552, looked up, GST-His6 fusion tag, yeast GST-HisX6 fusion protein on proteome chip) Imidazole glycerol phosphate …: MPVVHVIDVESGNLQSLTNAIEHLGYEVQLVKSPKDFNISGTSRLILPGVGNYGHFVDNLFNRGFEKPIREYIESGKPIMGICVGLQALFAGSVESPKSTGLNYIDFKLSRFDDSEKPVPEIGWNSCIPSENLFFGLDPYKRYYFVHSFAAILNSEKKKNLENDGWKIAKAKYGSEEFIAAVNKNNIFATQFHPEKSGKAGLNVIENFLKQQSPPIPNYSAEEKELLMNDYSNYGLTRRIIACLDVRTNDQGDLVVTKGDQYDVREKSDGKGVRNLGKPVQLAQKYYQQGADEVTFLNITSFRDCPLKDTPMLEVLKQAAKTVFVPLTVGGGIKDIVDVDGTKIPALEVASLYFRSGADKVSIGTDAVYAAEKYYELGNRGDGTSPIETISKAYGAQAVVISVDPKRVYVNSQADTKNKVFETEYPGPNGEKYCWYQCTIKGGRESRDLGVWELTRACEALGAGEILLNCIDKDGSNSGYDLELIEHVKDAVKIPVIASSGAGVPEHFEEAFLKTRADACLGAGMFHRGEFTVNDVKEYLLEHGLKVRMDEE | 20.00 | 18.73 | – | 226.45 | 193.11 | 78.07
5 | HEM14: yeast GST-HisX6 fusion protein on proteome chip (protein, UniProt P40012 1-539, looked up, GST-HisX6 tag, yeast GST-HisX6 fusion protein on proteome chip) Protoporphyrinogen oxidase: MLLPLTKLKPRAKVAVVGGGVSGLCFTYFLSKLRPDVEITLFESQNRTGGWIYSCNTRDMSGNPIMLEKGPRTLRGVSDGTVLIMDTLKDLGKEAVIQSIDKGCIADKKFLLDPSDKLVQVPNSISTTVKFLLNPLGKGLITGMMGEWFRKKSPHPGQDESVESICDRRFGNNYISNNMISALLRGIYGDDVSLLSAKRTFKKIYYNELKHGSNTQAMIDNMRGKSRSKKTENLHQSLTGCLNDYSNAFGKDRSKLLDLSNTLKKYPMLGLAGGLETFPKIVRNALNEFKNVKIVTGNPVTQIMKRPANETTIGLKAKSGDQYETFDHLRLTITPPKIAKLLPKDQNSLSKLLDEIQSNTIILVNYYLPNKDVIDADLQGFGYLVPKSNKNPGKLLGVIFDSVIERNFKPLFDKLSTNPNALNKYTKVTAMIGGCMLNEHGVPVVPSREVTINAVKDALNNHLGISNKDLEAGQWEFTIADRCLPRFHVGYDAWQERAERKLQESYGQTVSVGGMGFSRSPGVPDVIVDGFNDALQLSK | 1.00 | – | 21.03 | 16.11 | 38.15 | 8.55
6 | ERV1: yeast GST-HisX6 fusion protein on proteome chip (protein, UniProt P27882 1-189, looked up, GST-His6 tag, yeast GST-HisX6 fusion protein on proteome chip) Mitochondrial FAD-linked …: MKAIDKMTDNPPQEGLSGRKIIYDEDGKPCRSCNTLLDFQYVTGKISNGLKNLSSNGKLAGTGALTGEASELMPGSRTYRKVDPPDVEQLGRSSWTLLHSVAASYPAQPTDQQKGEMKQFLNIFSHIYPCNWCAKDFEKYIRENAPQVESREELGRWMCEAHNKVNKKLRKPKFDCNFWEKRWKDGWDE | 15.75 | 18.94 | – | −3.27 | – | 1.35
